Test results: patent US20130079499A1
Read-outs that look alike come from different tables or passages of the source. Blank lines part the entries; values can stand above or below the binder they belong to.

Key:
[1] = molecular target: γ-globulin formulation (KAKETSUKEN) that was a human antibody (human); test: batch adsorption: 0.5 mL of 10 mg/mL IgG on 0.1 mL FcRm19-immobilised gel, PBS pH 7.0, eluted at pH 3.0, A280
[2] = molecular target: γ-globulin formulation (KAKETSUKEN) that was a human antibody (human); test: batch adsorption: 0.5 mL of 10 mg/mL IgG on 0.1 mL FcRm19-immobilised gel (23.0 mg FcRm19 per mL gel), PBS pH 7.0, eluted at pH 3.0, A280
[3] = molecular target: γ-globulin formulation (KAKETSUKEN) that was a human antibody (human); test: column of FcRm19-immobilised gel loaded with IgG in PBS pH 7.0; eluted with 100 mM citric acid buffer of the given pH; R=A/(A+B)x100, A280
[4] = molecular target: γ-globulin formulation (KAKETSUKEN) that was a human antibody (human); test: batch adsorption: 3.0 mL of 10 mg/mL IgG on 0.5 mL FcRm56b-immobilised gel, PBS pH 7.0, eluted at pH 3.0, A280
[5] = molecular target: γ-globulin formulation (KAKETSUKEN) that was a human antibody (human); test: batch adsorption: 3.0 mL of 10 mg/mL IgG on 0.5 mL FcRm56b-immobilised gel (18.7 mg FcRm56b per mL gel), PBS pH 7.0, eluted at pH 3.0, A280
[6] = molecular target: γ-globulin formulation (KAKETSUKEN) that was a human antibody (human); test: column of FcRm56b-immobilised gel loaded with IgG in PBS pH 7.0; eluted with 100 mM citric acid buffer of the given pH; R=A/(A+B)x100, A280
[7] = molecular target: γ-globulin formulation (KAKETSUKEN) that was a human antibody (human); test: column of FcRm57b-immobilised gel loaded with IgG in PBS pH 7.0; eluted with 100 mM citric acid buffer of the given pH; R=A/(A+B)x100, A280
[8] = molecular target: γ-globulin formulation (KAKETSUKEN) that was a human antibody (human); test: batch adsorption: 3.0 mL of 10 mg/mL IgG on 0.4 mL FcRm57b-immobilised gel, PBS pH 7.0, eluted at pH 3.0, A280
[9] = molecular target: γ-globulin formulation (KAKETSUKEN) that was a human antibody (human); test: batch adsorption: 3.0 mL of 10 mg/mL IgG on 0.4 mL FcRm57b-immobilised gel (14.2 mg FcRm57b per mL gel), PBS pH 7.0, eluted at pH 3.0, A280
[10] = molecular target: γ-globulin formulation (KAKETSUKEN) that was a human antibody (human); test: column of FcRm48-immobilised gel loaded with IgG in PBS pH 7.0; eluted with 100 mM citric acid buffer of the given pH; R=A/(A+B)x100, A280
[11] = molecular target: γ-globulin formulation (KAKETSUKEN) that was a human antibody (human); test: batch adsorption: 0.5 mL of 10 mg/mL IgG on 0.05 mL FcRm48-immobilised gel, PBS pH 7.0, eluted at pH 3.0, A280
[12] = molecular target: γ-globulin formulation (KAKETSUKEN) that was a human antibody (human); test: batch adsorption: 0.5 mL of 10 mg/mL IgG on 0.05 mL FcRm48-immobilised gel (13.6 mg FcRm48 per mL gel), PBS pH 7.0, eluted at pH 3.0, A280
[13] = molecular target: γ-globulin formulation (KAKETSUKEN) that was a human antibody (human); test: ELISA: human γ-globulin coated 1 µg/well, culture supernatant diluted 5x, HRP anti-His-Tag detection
[14] = molecular target: γ-globulin formulation (KAKETSUKEN) that was a human antibody (human); test: as above; remark: listed apart in the source
[15] = molecular target: γ-globulin formulation (KAKETSUKEN) that was a human antibody (human); test: column of FcRm32-immobilised gel loaded with IgG in PBS pH 7.0; eluted with 100 mM citric acid buffer of the given pH; R=A/(A+B)x100, A280
[16] = molecular target: γ-globulin formulation (KAKETSUKEN) that was a human antibody (human); test: batch adsorption: 0.5 mL of 10 mg/mL IgG on 0.1 mL FcRm32-immobilised gel, PBS pH 7.0, eluted at pH 3.0, A280
[17] = molecular target: γ-globulin formulation (KAKETSUKEN) that was a human antibody (human); test: batch adsorption: 0.5 mL of 10 mg/mL IgG on 0.1 mL FcRm32-immobilised gel (19.3 mg FcRm32 per mL gel), PBS pH 7.0, eluted at pH 3.0, A280
[18] = molecular target: γ-globulin formulation (KAKETSUKEN) that was a human antibody (human); test: column of FcRm36b-immobilised gel loaded with IgG in PBS pH 7.0; eluted with 100 mM citric acid buffer of the given pH; R=A/(A+B)x100, A280
[19] = molecular target: γ-globulin formulation (KAKETSUKEN) that was a human antibody (human); test: batch adsorption: 0.5 mL of 10 mg/mL IgG on 0.05 mL FcRm36b-immobilised gel (21.0 mg FcRm36b per mL gel), PBS pH 7.0, eluted at pH 3.0, A280
[20] = molecular target: γ-globulin formulation (KAKETSUKEN) that was a human antibody (human); test: batch adsorption: 0.5 mL of 10 mg/mL IgG on 0.05 mL FcRm36b-immobilised gel, PBS pH 7.0, eluted at pH 3.0, A280

amount of the eluted IgG [1]: 2.1 mg | amount of adsorbed IgG per mL of the gel (mg per mL of gel) [2]: 21 | percentage of antibody elution at pH 3.0 [3]: 99.1% | percentage of antibody elution at pH 3.4 [3]: 87.4% | percentage of antibody elution at pH 3.8 [3]: 51.3% | percentage of antibody elution at pH 4.2 [3]: 22%
B1: Fc binding protein FcRm19 (19 amino acids of a wild-type Fc binding protein substituted) (receptor)
chain: KIEEAMGQVDTPKAVIKLQPPWVSVFQEESVTLHCEVPHLPGSSSTQWFLNGTAIQTSTPTYHITSASEDDSGEYRCQRGLSGRSDPIQLEVHRGWLLLQVSSRVLTEGEPLALRCHAWKDKLVYNVLYYRNGKAFKFFHWNSNLTILKTNMSHSGTYHCSGMGKHRYTSAGISVTVKELFPAPVLTASVTSPLLEGTPVTLSCETKLLLQRPGLQLYFSFYMGSKTLRGRDTSSEYQILTARREDSGLYWCEAATEDGNVLKRSPELELQVLGHQQPTPVHHHHHH

amount of eluted IgG [4]: 11.5 mg | amount of adsorbed IgG per mL of the gel (mg per mL of gel) [5]: 23 | percentage of antibody elution at pH 3.0 [6]: 99.7% | percentage of antibody elution at pH 3.4 [6]: 99.5% | percentage of antibody elution at pH 3.8 [6]: 94.5% | percentage of antibody elution at pH 4.2 [6]: 73%
B2: Fc binding protein FcRm56b (56 amino acids of a wild-type Fc binding protein substituted) (receptor)
chain: KIEEAMGQVDTPKAVIKLQPPWVSVFLGESVTMLCEVPHLSGAGSTQWFRNDTAIQASTPTYHIASASEDDSGEYRCQRGLSGRSDPILLEVHRGWLLLQVSARVLIEGEPLVLRCHAWRDKQVHNVLFYHNGKAFKFFHRNTTLTIPRTNTSHSGTYHCSGMGRHRYTSAGTLVSVKELFPAPVLTASVASPLHEGTQVTLSCVTKLLIQRPGLQLYFSFYKGSETLRGRDTSSEYQILAARREDSGLYWCEAATEDGNVVKRSPELELQVLGHQQPTPVHHHHHH

percentage of antibody elution at pH 3.0 [7]: 99.3% | percentage of antibody elution at pH 3.4 [7]: 99.6% | percentage of antibody elution at pH 3.8 [7]: 90.2% | percentage of antibody elution at pH 4.2 [7]: 66.2% | amount of eluted IgG [8]: 6.67 mg | amount of adsorbed IgG per mL of the gel (mg per mL of gel) [9]: 16.7
B3: Fc binding protein FcRm57b (57 amino acids of a wild-type Fc binding protein substituted) (receptor)
chain: KIEEAMGQVDTPKAVIKLQPPWVSVFLGESVTMLCEVPHLSGAGSTQWFRNDTAIQASTPTFHIASASEDDSGEYRCQRGLSGRSDPILLEVHRGWLLLQVSARVLIEGEPLVLRCHAWRDKLVHNVLFYHNGKAFKFFHRNTTLTIPRTNTSHSGTYHCSGMGRHRYTSAGTLVSVKELFPAPVLTASVASPLLEGTPVTLSCVTKLLIQRPGLQLYFSFFKGGETLRGRDTSSEYQILAARREDSGLYWCEAATEDGNVVKRSPELELQVLGHQQPTPVHHHHHH

percentage of antibody elution at pH 3.0 [10]: 99.2% | percentage of antibody elution at pH 3.4 [10]: 100% | percentage of antibody elution at pH 3.8 [10]: 98.2% | percentage of antibody elution at pH 4.2 [10]: 81.9% | amount of eluted IgG [11]: 0.94 mg | amount of adsorbed IgG per mL of the gel (mg per mL of gel) [12]: 18.8
B4: Fc binding protein FcRm48 (48 amino acids of a wild-type Fc binding protein substituted) (receptor)
chain: KIEEAMGQVDTPKAVIKLQPPWVSVFLGESVTMHCEAPHLSGTGSTQWFLNDTAIQASTPTYHITSASEDDSGEYRCQRGLSGRSDPILLEVHRGWLLLQVSSRVLTEGEPLALRCHAWRDKQVHNVLFYHNGKAFKFFHRNSTLTIPRTNTSHSGTYHCSGMGRHRYTSAGTLVSVKELFPAPVLTASVTSPLHEGTQVTLSCVTKLLIQRPGLQLYFSFYKGSKTLRGRDTSSEYQILAARREDSGLYWCVAATEDGNVLKRSPELELQVLGHQQPTPVHHHHHH

OD450 nm [13]: 0.22 OD450 nm | OD450 nm [14]: 0.14 OD450 nm
B5: wild-type Fc binding protein (Fc binding protein with no amino acid substitution) expressed by the pETFcR transformant (receptor)
chain: KIEEAMGQVDTTKAVITLQPPWVSVFQEETVTLHCEVLHLPGSSSTQWFLNGTATQTSTPSYRITSASVNDSGEYRCQRGLSGRSDPIQLEIHRGWLLLQVSSRVFTEGEPLALRCHAWKDKLVYNVLYYRNGKAFKFFHWNSNLTILKTNISHNGTYHCSGMGKHRYTSAGISVTVKELFPAPVLNASVTSPLLEGNLVTLSCETKLLLQRPGLQLYFSFYMGSKTLRGRNTSSEYQILTARREDSGLYWCEAATEDGNVLKRSPELELQVLGLQLPTPVHHHHHH

percentage of antibody elution at pH 3.0 [15]: 98.7% | percentage of antibody elution at pH 3.4 [15]: 99.3% | percentage of antibody elution at pH 3.8 [15]: 97.9% | percentage of antibody elution at pH 4.2 [15]: 82.8% | amount of eluted IgG [16]: 1.98 mg | amount of adsorbed IgG per mL of the gel (mg per mL of gel) [17]: 19.8
B6: Fc binding protein FcRm32 (32 amino acids of a wild-type Fc binding protein substituted) (receptor)
chain: KIEEAMGQVDTPKAVIKLQPPWVSVFQGESVTLHCEAPHLSGSSSTQWFLNDTAIQASTPTYHITSASEDDSGEYRCQRGLSGRSDPIQLEVHRGWLLLQVSSRVLTEGEPLALRCHAWKDKLVHNVLYYHNGKAFKFFHRNSNLTIPKTNTSHSGTYHCSGMGRHRYTSAGTSVTVKELFPAPVLTASVTSPLHEGTQVTLSCETKLLLQRPGLQLYFSFYKGSKTLRGRDTSSEYQILTARREDSGLYWCEAATEDGNVLKRSPELELQVLGHQQPTPVHHHHHH

percentage of antibody elution at pH 3.0 [18]: 99.5% | percentage of antibody elution at pH 3.4 [18]: 99.4% | percentage of antibody elution at pH 3.8 [18]: 92.2% | percentage of antibody elution at pH 4.2 [18]: 64% | amount of adsorbed IgG per mL of the gel (mg per mL of gel) [19]: 28.8 | amount of eluted IgG [20]: 1.44 mg
B7: Fc binding protein FcRm36b (36 amino acids of a wild-type Fc binding protein substituted) (receptor)
chain: KIEEAMGQVDTPKAVIKLQPPWVSVFLGESVTMHCEAPHLSGSGSTQWFLNDTAIQASTPTYHITSASEDDSGEYRCQRGLSGRSDPIQLEVHRGWLLLQVSSRVLTEGEPLALRCHAWKDKLVHNVLYYHNGKAFKFFHRNSTLTIPKTNTSHSGTYHCSGMGRHRYTSAGTSVTVKELFPAPVLTASVTSPLHEGTQVTLSCETKLLLQRPGLQLYFSFYKGSKTLRGRDTSSEYQILTARREDSGLYWCEAATEDGNVLKRSPELELQVLGHQQPTPVHHHHHH
